Experimental data reported in patent publication US20190002511A1 (NATIONAL UNIVERSITY OF SINGAPORE, published 2019).
Where two headings read alike, the source gives them in different places. Square brackets hold non-standard residues; d marks the D form. Ends that are not written are not given here. β3hR = N=C(N)NCCC[C@H](N)CC(=O)O

Key:
[1] = molecular target: T1, human α-thrombin (recombinant) (human, UniProt P00734 328-363; P00734 364-622); assay: comparison of Ki values
Experimental: (§3) Thrombin amidolytic activity assays for all peptides were performed in 96-wells microtiter plates in 50 mM Tris buffer (pH 7.4) containing 100 mM NaCl and 1 mg/ml bovine serum albumin. […] Dose-response curves were fitted using the GraphPad Prizm software (San Diego, Calif., USA) to calculate IC50 values and Hill coefficients. To measure the inhibitory constants, different concentrations of S2238 were used and the residual velocities were determined using the Morrison's tight binding equation.

[2] = molecular target: T1, human α-thrombin (recombinant); assay: cell-based or functional assay
[3] = molecular target: T1, human α-thrombin (recombinant); assay: thrombin amidolytic assay with S2238, tight-binding fit
Experimental: A and C. […] B and D. Residual thrombin amidolytic activities in presence of UV003 and UV004 were measured at different concentrations of S2238 and their Kᵢ were determined.
(§1) Thrombin amidolytic activity assays for all peptides were performed in 96-wells microtiter plates in 50 mM Tris buffer (pH 7.4) containing 100 mM NaCl and 1 mg/ml bovine serum albumin. […] The rates of formation of p-nitroaniline were followed by measuring the absorbance at 405 nm for 10 min with a Tecan InfinitePro M200 microplate reader from Tecan (Mannedorf, Switzerland). Dose-response curves were fitted using the GraphPad Prizm software (San Diego, Calif., USA) to calculate IC50 values and Hill coefficients. To measure the inhibitory constants, different concentrations of S2238 were used and the residual velocities were determined using the Morrison's tight binding equation. Inhibition of thrombin fibrinogenolytic activity of peptides were tested by measuring absorbance at 650 nm using a Sunrise microplate reader from Tecan (Mannedorf, Switzerland) as described previously [Koh C Y, et al., J Biol Chem 282: 29101-13 (2007)].

[4] = molecular target: T1, human α-thrombin (recombinant); assay: comparison of Ki values, thrombin amidolytic assay
Experimental: as §3

[5] = molecular target: T1, human α-thrombin (recombinant); assay: cell-based or functional assay; remark: listed apart in the source
[6] = molecular target: T1, human α-thrombin (recombinant); assay: cell-based or functional assay; remark: listed apart in the source
[7] = molecular target: T1, human α-thrombin (recombinant); assay: thrombin amidolytic assay with S2238, double reciprocal (Lineweaver-Burke) plot
Experimental: (§2) Each data point is the mean±S.D. of at least three independent experiments.
as §1, with “To measure the inhibitory constants, different concentrations of S2238 were used and the residual velocities were determined using the Morrison's tight binding equation.” left out, “(2007)]. […] After different incubation times, reactions were quenched with 1% TFA (pH 1.8) and loaded onto a Jupiter Proteo column (4 μm, 90 Å, 100×1.0 mm) attached to a Dionex nano-HPLC system from Thermo Fisher Scientific (Waltham, Mass., USA) and eluted using an acetonitrile gradient with 0.05% TFA and 99.95% MilliQ water as eluent A and 0.05% TFA, 19.95% MilliQ water and 80% ACN as eluent B. Masses of all peaks were measured to identify cleavage products, which were subsequently quantified by integrating the peaks and calculating the area under the curves. […]” for “(2007)].”

[8] = molecular target: bovine trypsin (bovine, UniProt P00760 24-246); assay: cell-based or functional assay
Sequence of bovine trypsin (P00760 24-246): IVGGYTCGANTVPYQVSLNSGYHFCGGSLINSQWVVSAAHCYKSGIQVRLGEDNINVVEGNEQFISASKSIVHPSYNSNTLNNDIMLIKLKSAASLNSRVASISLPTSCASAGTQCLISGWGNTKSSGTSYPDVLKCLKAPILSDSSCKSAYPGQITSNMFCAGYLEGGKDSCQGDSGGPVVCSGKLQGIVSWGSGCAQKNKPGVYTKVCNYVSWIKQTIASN

[9] = molecular target: fIXa; assay: cell-based or functional assay
[10] = molecular target: fXIa; assay: cell-based or functional assay
[11] = molecular target: fXa; assay: cell-based or functional assay
Sequence of fXa (P00742 whole entry): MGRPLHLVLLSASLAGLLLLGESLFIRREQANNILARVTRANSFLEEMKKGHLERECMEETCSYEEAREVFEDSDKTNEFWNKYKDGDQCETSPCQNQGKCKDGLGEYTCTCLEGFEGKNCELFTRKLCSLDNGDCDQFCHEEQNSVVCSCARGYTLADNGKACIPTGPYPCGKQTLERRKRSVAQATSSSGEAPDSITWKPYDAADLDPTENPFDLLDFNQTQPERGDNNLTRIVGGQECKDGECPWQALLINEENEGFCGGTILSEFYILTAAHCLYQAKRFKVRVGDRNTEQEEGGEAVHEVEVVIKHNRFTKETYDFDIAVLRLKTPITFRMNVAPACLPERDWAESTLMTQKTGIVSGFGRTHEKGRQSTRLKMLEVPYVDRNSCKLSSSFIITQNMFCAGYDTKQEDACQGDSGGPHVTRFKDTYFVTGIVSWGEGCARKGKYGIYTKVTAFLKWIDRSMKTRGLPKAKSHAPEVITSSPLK

[12] = molecular target: bovine chymotrypsin (bovine, UniProt P00766 1-245); assay: cell-based or functional assay
[13] = molecular target: tPA; assay: cell-based or functional assay
[14] = molecular target: fVIIa; assay: cell-based or functional assay
Sequence of fVIIa (P08709 whole entry): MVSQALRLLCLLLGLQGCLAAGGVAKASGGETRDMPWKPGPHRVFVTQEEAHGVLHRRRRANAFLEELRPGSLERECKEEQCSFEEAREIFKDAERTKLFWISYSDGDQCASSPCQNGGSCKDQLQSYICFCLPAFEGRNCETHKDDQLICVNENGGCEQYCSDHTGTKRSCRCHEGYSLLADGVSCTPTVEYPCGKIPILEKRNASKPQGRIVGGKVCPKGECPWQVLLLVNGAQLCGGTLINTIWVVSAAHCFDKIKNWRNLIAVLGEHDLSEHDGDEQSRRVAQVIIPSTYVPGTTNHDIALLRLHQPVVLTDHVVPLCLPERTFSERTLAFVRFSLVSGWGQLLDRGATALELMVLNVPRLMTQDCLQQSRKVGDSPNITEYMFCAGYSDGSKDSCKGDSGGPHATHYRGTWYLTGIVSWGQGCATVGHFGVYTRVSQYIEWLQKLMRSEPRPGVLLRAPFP

[15] = molecular target: plasmin; assay: cell-based or functional assay
[16] = molecular target: APC; assay: cell-based or functional assay
[17] = molecular target: kallikrein; assay: cell-based or functional assay
[18] = molecular target: urokinase; assay: cell-based or functional assay
[19] = molecular target: fXIIa; assay: cell-based or functional assay
[20] = molecular target: T1, human α-thrombin (recombinant); assay: cell-based or functional assay; remark: listed apart in the source
[21] = molecular target: T1, human α-thrombin (recombinant); assay: thrombin amidolytic assay with S2238; column headed Affinity (nM)
Experimental: Each data point is the mean±S.D. of at least three experiments. […] Data were fitted to the Morrison tight binding equation using GraphPad Prizm software. Each data point is the mean±S.D. of at least three experiments.
as §3

[22] = molecular target: T1, human α-thrombin (recombinant); assay: thrombin amidolytic assay with S2238, Morrison tight-binding fit, competitive
Text: Data were fitted to the Morrison tight binding equation using GraphPad Prizm software. Each data point is the mean±S.D. of at least three experiments.
(§4) Each data point is the mean±S.D. of at least three independent experiments. […] Each data point is the mean±S.D. of at least three independent experiments. […] Each data point is the mean±S.D. of at least three experiments.

[23] = molecular target: T1, human α-thrombin (recombinant); assay: thrombin amidolytic assay with S2238, tight-binding fit; remark: listed apart in the source
Experimental: as §2
as §1, with “(2007)]. […] After different incubation times, reactions were quenched with 1% TFA (pH 1.8) and loaded onto a Jupiter Proteo column (4 μm, 90 Å, 100×1.0 mm) attached to a Dionex nano-HPLC system from Thermo Fisher Scientific (Waltham, Mass., USA) and eluted using an acetonitrile gradient with 0.05% TFA and 99.95% MilliQ water as eluent A and 0.05% TFA, 19.95% MilliQ water and 80% ACN as eluent B. Masses of all peaks were measured to identify cleavage products, which were subsequently quantified by integrating the peaks and calculating the area under the curves. To measure the effect of different pre-incubation times on the thrombin inhibitory activity, amidolytic assays were performed for various incubation times (up to 36 h).” for “(2007)].”

[24] = molecular target: T1, human α-thrombin (recombinant); assay: thrombin amidolytic assay with S2238, Morrison tight-binding fit, non-competitive
Experimental: as §4, §3

B1: UV011 (peptide)
peptide: MYSTAPPGDFEEIPDDAIEE
notes: also called C-terminal cleavage product of ultravariegin
fold better Ki than the avathrin C-terminal cleavage product IS20 [1]: ~4 fold | fold better Ki than the variegin C-terminal cleavage product MH22 [1]: ~10 fold | IC50, inhibition of thrombin amidolytic activity [2]: 1.66 nM | Ki [3]: 1.39 nM

SDEAVRAIPKMYSTAPPGDFEEIPEEYLDDES [UV005]
IC50, inhibition of thrombin amidolytic activity [2]: 0.91 nM | fold drop in affinity against ultravariegin [4]: ~3.6 fold | Ki [3]: 0.016 nM

SGGHQTAVP[β3hR]ISKQGLGGDFEEIPSDEIIE [β-avathrin]
fold loss of potency against avathrin (amidolytic IC50) [5]: > 100 fold | IC50, inhibition of thrombin amidolytic activity (S2238) [6]: 332 nM | Ki [7]: 32 nM

SDEAVRAEPKMHKTAPPGDFEEIPDDAIEE [UV004]
IC50, inhibition of thrombin amidolytic activity [2]: 0.46 nM | Ki [3]: 0.00455 nM

SDEAVRAIPKMYSTAPPGDFEEIPDDEIEE (Ultravariegin Ala27Glu) [UV012]
IC50, inhibition of thrombin amidolytic activity [2]: 0.94 nM

B2: UV007 (peptide)
peptide: CDEAVRAIPKMYSTAPPGDFEEIPDDAIEE
notes: Ultravariegin with Cys at the N-terminus
IC50, inhibition of thrombin amidolytic activity [2]: 0.601 nM | Ki [3]: 0.00627 nM

SDEAVRAIPKMYSQAPPGDFEEIPDDAIEE (Ultravariegin Thr14Gln) [UV013]
IC50, inhibition of thrombin amidolytic activity [2]: 0.341 nM

SDQGDVAEPKMYSTAPPFDFEAIPEEYLDDES [Variegin YS]
IC50, inhibition of thrombin amidolytic activity [2]: 3.16 nM | Ki [3]: 0.671 nM

B3: avathrin (Amblyomma variegatum thrombin inhibitor) (peptide)
peptide: SGGHQTAVPKISKQGLGGDFEEIPSDEIIE
notes: Synthetic 30-residue peptide; one repeat of precursor protein BAD29729
IC50, inhibition of the amidolytic activity of clot-bound thrombin (S2238) [5]: 1740 nM | IC50, inhibition of thrombin amidolytic activity, 10 min pre-incubation [5]: 4.86 nM | percent of thrombin amidolytic activity inhibited at 24 h of incubation (avathrin in about 30-fold excess) [5]: > 45% | percent inhibition of amidolytic activity at 100 µM avathrin [8]: < 30% | percent inhibition of amidolytic activity at 100 µM avathrin [9]: < 30% | percent inhibition of amidolytic activity at 100 µM avathrin [10]: < 30% | percent inhibition of amidolytic activity at 100 µM avathrin [11]: < 30% | percent inhibition of amidolytic activity at 100 µM avathrin [12]: < 30% | percent inhibition of amidolytic activity at 100 µM avathrin [13]: < 30% | percent inhibition of amidolytic activity at 100 µM avathrin [14]: < 30% | percent inhibition of amidolytic activity at 100 µM avathrin [15]: < 30% | percent inhibition of amidolytic activity at 100 µM avathrin [16]: < 30% | percent inhibition of amidolytic activity at 100 µM avathrin [17]: < 30% | percent inhibition of amidolytic activity at 100 µM avathrin [18]: < 30% | percent inhibition of amidolytic activity at 100 µM avathrin [19]: < 30% | IC50, inhibition of thrombin amidolytic activity (S2238) [6]: 6.95 nM | IC50, inhibition of thrombin amidolytic activity [20]: 6.95 nM | Ki [21]: 0.545 nM | Ki [22]: 0.545 nM

SGGHQTAVPRISKQGLGGDFEEIPSDEIIE (also called K10R-avathrin) [avathrin K10R]
fold gain in activity against avathrin [5]: 5 fold | IC50, inhibition of thrombin amidolytic activity (S2238) [6]: 1.15 nM | Ki [23]: 0.172 nM

SDGHDTAVPKISKQGLGGDFEEIPSDEIIE [avathrin G2D, Q5D]
fold weaker inhibition against avathrin and QT26 [5]: < 2 fold | IC50, inhibition of thrombin amidolytic activity (S2238) [6]: 13 nM | Ki [23]: 0.932 nM

SGGHQTAVPKIHKQGLGGDFEEIPSDEIIE (also called 512H) [avathrin S12H]
fold loss of potency against avathrin (amidolytic IC50) [5]: 2 fold | IC50, inhibition of thrombin amidolytic activity (S2238) [6]: 18.5 nM | Ki [23]: 1.23 nM

SGGHQTAVPKIAKQGLGGDFEEIPSDEIIE [avathrin S12A]
fold change of IC50 against avathrin [5]: 20 fold | fold drop in potency against avathrin (amidolytic IC50) [5]: > 10 fold | IC50, inhibition of thrombin amidolytic activity (S2238) [6]: 101 nM | Ki [7]: 6.08 nM

SGGHQTAVPKISKQGPPGDFEEIPSDEIIE [avathrin L16P, G17P]
fold drop in activity against avathrin (amidolytic IC50) [5]: > 25 fold | IC50, inhibition of thrombin amidolytic activity (S2238) [6]: 181 nM

SDEAVRAIPKMYSTAPPGDFEEIPDDAIEECA (Ultravariegin with C-terminal CA) [UV008]
IC50, inhibition of thrombin amidolytic activity [2]: 1.82 nM | Ki [3]: 0.0786 nM

SDQGDVAIPKMYSTAPPGDFEEIPDDAIEE [UV003]
IC50, inhibition of thrombin amidolytic activity [2]: 0.6 nM | Ki [3]: 0.00421 nM

B4: IS20 (peptide)
peptide: ISKQGLGGDFEEIPSDEIIE
notes: Avathrin residues 11-30; also called C-terminal cleavage product of avathrin
IC50, inhibition of thrombin amidolytic activity, 0 min [5]: 12.4 nM | IC50, inhibition of thrombin amidolytic activity, 10 min pre-incubation [5]: 22.7 nM | IC50, inhibition of thrombin amidolytic activity (S2238) [6]: 12.2 nM | Ki [24]: 5.76 nM

SDEAVRAIPKMYSTAPPGDFEEIPDDAIEEGCCC (Ultravariegin with C-terminal GCCC) [UV015]
IC50, inhibition of thrombin amidolytic activity [2]: 1 nM | Ki [3]: 0.00852 nM

MYSTAPPGDFEEIPDDAIEEGCCC (UV011 with C-terminal GCCC) [UV014]
IC50, inhibition of thrombin amidolytic activity [2]: 1.98 nM | Ki [3]: 2.47 nM

B5: QT26 (peptide)
peptide: QTAVPKISKQGLGGDFEEIPSDEIIE
notes: Avathrin without its four N-terminal residues
IC50, inhibition of thrombin amidolytic activity, 10 min pre-incubation [5]: 13.5 nM | IC50, inhibition of thrombin amidolytic activity (S2238) [6]: 8.94 nM | Ki [22]: 0.76 nM
